Source: article doi:10.1101/2021.09.22.461404 (bioRxiv, 2021)

Molecular target: the molecule itself
Assay: crystal structure

B1: closed-gate E71V KcsA (C-terminal tail removed by chymotrypsin) (domain or fragment)
chain: PMLSGLLARLVKLLLGRHGSALHWRAAGAATVLLVIVLLAGSYLAVLAERGAPGAQLITYPRALWWSVVTATTVGYGDLYPVTLWGRLVAVVVMVAGITSFGLVTAALATWFVGREQERRGH
stoichiometry N: 4
